According to US20160177276A1 (Merck KGaA, published 2016):

B1: anti-CD20 huIgG1 (antibody, V domains shown)
VH: QVQLQQPGAELVKPGASVKMSCKASGYTFTSYNMHWVKQTPGRGLEWIGAIYPGNGDTSYNQKFKGKATLTADKSSSTAYMQLSSLTSEDSAVYYCARSTYYGGDWYFNVWGAGTTVTVSA
VL: QIVLSQSPAILSASPGEKVTMTCRASSSVSYIHWFQQKPGSSPKPWIYATSNLASGVPVRFSGSGSGTSYSLTISRVEAEDAATYYCQQWTSNPPTFGGGTKLEIKR
notes: Control in standard monoclonal antibody format, huIgG1, based on 2B8 (rituximab); not shown: rest of the human IgG1 heavy chain
B2: chimeric antibody B6H12/huIgG1 (antibody, V domains shown)
VH: EVQLQESGGDLVKPGGSLKLSCAASGFTFSGYGMSWVRQTPDKRLEWVATITSGGTYTYYPDSVKGRFTISRDNAKNTLYLQIDSLKSEDTAIYFCARSLAGNAMDYWGQGTTVTVSS
VL: DIVITQSPATLSVTPGDRVSLSCRASQTISDYLHWYQQKSHESPRLLIKFASQSISGIPSRFSGSGSGSDFTLSINSVEPEDVGVYYCQNGHGFPRTFGGGTKLEIKR
notes: also called anti-CD47; anti-CD47 huIgG1
B3: Fcab(HER2) (other)
chain: EPKSSDKTHTCPPCPAPELLGGPSVFLFPPKPKDTLMISRTPEVTCVVVDVSHEDPEVKFNWYVDGVEVHNAKTKPREEQYNSTYRVVSVLTVLHQDWLNGKEYKCKVSNKALPAPIEKTISKAKGQPREPQVYTLPPSRDEYLYGDVSLTCLVKGFYPSDIAVEWESNGQPENNYKTTPPVLDSDGSFFLYSKLTVPRHSARMWRWAHGNVFSCSVMHEALHNHYTQKSLSLSPGK
notes: also called anti-HER2 Fcab H10-03-6

Key:
CD47 [1] = target: T1, CD47 (human, UniProt Q08722 19-323); assay: flow cytometry on CD47-transfected CHO cells
T1 construct: whole, on cells; Human by the cells used (blood of human donors; human Ramos, A549, BT474, Raji, Namalwa cells); also called human CD47

CD47 [2] = target: T1, CD47; assay: flow cytometry on CD47-low human Ramos cells
Protocol: (§1) After washing again, cells were fixed with 1% formaldehyde in PBS. Cells were analyzed by flow cytometry (MACSQuant, Miltenyi Biotec, Cologne, Germany).

CD47 [3] = target: T1, CD47; assay: flow cytometry on CD47-high (CD47-transfected) CHO cells
Protocol: as §1

HER2 = target: T2, HER2 (human, UniProt P04626 23-1255); assay: flow cytometry on BT474 cells
T2 construct: whole, on cells; The cells carry CD47 as well
Protocol: After washing with PBS+1% FBS, cells were incubated with FITC F(ab′)2 goat Anti-Human IgG, Fcγ (Jackson ImmunoResearch, West Grove, Pa.), diluted 1:200 in PBS+1% FBS for 60 min on ice. After washing again, cells were fixed with 1% formaldehyde in PBS. Cells were analyzed by flow cytometry (MACSQuant, Miltenyi Biotec, Cologne, Germany).

| Binder | binding result (CD47 [1]) | EC50 (CD47 [2]) [nM] | EC50 (CD47 [3]) [nM] | binding result (HER2) |
| --- | --- | --- | --- | --- |
| B1 | no binding |  |  |  |
| B2 |  | 6 | 7 |  |
| B3 | no binding |  |  | binds |
